From publication PMC5017731

Target: cardiac ryanodine receptor (RyR2) (rat (endogenous in neonatal ventricular cardiomyocytes)) (UniProt B0LPN4)
Sequence of UniProt B0LPN4 (B0LPN4 whole entry): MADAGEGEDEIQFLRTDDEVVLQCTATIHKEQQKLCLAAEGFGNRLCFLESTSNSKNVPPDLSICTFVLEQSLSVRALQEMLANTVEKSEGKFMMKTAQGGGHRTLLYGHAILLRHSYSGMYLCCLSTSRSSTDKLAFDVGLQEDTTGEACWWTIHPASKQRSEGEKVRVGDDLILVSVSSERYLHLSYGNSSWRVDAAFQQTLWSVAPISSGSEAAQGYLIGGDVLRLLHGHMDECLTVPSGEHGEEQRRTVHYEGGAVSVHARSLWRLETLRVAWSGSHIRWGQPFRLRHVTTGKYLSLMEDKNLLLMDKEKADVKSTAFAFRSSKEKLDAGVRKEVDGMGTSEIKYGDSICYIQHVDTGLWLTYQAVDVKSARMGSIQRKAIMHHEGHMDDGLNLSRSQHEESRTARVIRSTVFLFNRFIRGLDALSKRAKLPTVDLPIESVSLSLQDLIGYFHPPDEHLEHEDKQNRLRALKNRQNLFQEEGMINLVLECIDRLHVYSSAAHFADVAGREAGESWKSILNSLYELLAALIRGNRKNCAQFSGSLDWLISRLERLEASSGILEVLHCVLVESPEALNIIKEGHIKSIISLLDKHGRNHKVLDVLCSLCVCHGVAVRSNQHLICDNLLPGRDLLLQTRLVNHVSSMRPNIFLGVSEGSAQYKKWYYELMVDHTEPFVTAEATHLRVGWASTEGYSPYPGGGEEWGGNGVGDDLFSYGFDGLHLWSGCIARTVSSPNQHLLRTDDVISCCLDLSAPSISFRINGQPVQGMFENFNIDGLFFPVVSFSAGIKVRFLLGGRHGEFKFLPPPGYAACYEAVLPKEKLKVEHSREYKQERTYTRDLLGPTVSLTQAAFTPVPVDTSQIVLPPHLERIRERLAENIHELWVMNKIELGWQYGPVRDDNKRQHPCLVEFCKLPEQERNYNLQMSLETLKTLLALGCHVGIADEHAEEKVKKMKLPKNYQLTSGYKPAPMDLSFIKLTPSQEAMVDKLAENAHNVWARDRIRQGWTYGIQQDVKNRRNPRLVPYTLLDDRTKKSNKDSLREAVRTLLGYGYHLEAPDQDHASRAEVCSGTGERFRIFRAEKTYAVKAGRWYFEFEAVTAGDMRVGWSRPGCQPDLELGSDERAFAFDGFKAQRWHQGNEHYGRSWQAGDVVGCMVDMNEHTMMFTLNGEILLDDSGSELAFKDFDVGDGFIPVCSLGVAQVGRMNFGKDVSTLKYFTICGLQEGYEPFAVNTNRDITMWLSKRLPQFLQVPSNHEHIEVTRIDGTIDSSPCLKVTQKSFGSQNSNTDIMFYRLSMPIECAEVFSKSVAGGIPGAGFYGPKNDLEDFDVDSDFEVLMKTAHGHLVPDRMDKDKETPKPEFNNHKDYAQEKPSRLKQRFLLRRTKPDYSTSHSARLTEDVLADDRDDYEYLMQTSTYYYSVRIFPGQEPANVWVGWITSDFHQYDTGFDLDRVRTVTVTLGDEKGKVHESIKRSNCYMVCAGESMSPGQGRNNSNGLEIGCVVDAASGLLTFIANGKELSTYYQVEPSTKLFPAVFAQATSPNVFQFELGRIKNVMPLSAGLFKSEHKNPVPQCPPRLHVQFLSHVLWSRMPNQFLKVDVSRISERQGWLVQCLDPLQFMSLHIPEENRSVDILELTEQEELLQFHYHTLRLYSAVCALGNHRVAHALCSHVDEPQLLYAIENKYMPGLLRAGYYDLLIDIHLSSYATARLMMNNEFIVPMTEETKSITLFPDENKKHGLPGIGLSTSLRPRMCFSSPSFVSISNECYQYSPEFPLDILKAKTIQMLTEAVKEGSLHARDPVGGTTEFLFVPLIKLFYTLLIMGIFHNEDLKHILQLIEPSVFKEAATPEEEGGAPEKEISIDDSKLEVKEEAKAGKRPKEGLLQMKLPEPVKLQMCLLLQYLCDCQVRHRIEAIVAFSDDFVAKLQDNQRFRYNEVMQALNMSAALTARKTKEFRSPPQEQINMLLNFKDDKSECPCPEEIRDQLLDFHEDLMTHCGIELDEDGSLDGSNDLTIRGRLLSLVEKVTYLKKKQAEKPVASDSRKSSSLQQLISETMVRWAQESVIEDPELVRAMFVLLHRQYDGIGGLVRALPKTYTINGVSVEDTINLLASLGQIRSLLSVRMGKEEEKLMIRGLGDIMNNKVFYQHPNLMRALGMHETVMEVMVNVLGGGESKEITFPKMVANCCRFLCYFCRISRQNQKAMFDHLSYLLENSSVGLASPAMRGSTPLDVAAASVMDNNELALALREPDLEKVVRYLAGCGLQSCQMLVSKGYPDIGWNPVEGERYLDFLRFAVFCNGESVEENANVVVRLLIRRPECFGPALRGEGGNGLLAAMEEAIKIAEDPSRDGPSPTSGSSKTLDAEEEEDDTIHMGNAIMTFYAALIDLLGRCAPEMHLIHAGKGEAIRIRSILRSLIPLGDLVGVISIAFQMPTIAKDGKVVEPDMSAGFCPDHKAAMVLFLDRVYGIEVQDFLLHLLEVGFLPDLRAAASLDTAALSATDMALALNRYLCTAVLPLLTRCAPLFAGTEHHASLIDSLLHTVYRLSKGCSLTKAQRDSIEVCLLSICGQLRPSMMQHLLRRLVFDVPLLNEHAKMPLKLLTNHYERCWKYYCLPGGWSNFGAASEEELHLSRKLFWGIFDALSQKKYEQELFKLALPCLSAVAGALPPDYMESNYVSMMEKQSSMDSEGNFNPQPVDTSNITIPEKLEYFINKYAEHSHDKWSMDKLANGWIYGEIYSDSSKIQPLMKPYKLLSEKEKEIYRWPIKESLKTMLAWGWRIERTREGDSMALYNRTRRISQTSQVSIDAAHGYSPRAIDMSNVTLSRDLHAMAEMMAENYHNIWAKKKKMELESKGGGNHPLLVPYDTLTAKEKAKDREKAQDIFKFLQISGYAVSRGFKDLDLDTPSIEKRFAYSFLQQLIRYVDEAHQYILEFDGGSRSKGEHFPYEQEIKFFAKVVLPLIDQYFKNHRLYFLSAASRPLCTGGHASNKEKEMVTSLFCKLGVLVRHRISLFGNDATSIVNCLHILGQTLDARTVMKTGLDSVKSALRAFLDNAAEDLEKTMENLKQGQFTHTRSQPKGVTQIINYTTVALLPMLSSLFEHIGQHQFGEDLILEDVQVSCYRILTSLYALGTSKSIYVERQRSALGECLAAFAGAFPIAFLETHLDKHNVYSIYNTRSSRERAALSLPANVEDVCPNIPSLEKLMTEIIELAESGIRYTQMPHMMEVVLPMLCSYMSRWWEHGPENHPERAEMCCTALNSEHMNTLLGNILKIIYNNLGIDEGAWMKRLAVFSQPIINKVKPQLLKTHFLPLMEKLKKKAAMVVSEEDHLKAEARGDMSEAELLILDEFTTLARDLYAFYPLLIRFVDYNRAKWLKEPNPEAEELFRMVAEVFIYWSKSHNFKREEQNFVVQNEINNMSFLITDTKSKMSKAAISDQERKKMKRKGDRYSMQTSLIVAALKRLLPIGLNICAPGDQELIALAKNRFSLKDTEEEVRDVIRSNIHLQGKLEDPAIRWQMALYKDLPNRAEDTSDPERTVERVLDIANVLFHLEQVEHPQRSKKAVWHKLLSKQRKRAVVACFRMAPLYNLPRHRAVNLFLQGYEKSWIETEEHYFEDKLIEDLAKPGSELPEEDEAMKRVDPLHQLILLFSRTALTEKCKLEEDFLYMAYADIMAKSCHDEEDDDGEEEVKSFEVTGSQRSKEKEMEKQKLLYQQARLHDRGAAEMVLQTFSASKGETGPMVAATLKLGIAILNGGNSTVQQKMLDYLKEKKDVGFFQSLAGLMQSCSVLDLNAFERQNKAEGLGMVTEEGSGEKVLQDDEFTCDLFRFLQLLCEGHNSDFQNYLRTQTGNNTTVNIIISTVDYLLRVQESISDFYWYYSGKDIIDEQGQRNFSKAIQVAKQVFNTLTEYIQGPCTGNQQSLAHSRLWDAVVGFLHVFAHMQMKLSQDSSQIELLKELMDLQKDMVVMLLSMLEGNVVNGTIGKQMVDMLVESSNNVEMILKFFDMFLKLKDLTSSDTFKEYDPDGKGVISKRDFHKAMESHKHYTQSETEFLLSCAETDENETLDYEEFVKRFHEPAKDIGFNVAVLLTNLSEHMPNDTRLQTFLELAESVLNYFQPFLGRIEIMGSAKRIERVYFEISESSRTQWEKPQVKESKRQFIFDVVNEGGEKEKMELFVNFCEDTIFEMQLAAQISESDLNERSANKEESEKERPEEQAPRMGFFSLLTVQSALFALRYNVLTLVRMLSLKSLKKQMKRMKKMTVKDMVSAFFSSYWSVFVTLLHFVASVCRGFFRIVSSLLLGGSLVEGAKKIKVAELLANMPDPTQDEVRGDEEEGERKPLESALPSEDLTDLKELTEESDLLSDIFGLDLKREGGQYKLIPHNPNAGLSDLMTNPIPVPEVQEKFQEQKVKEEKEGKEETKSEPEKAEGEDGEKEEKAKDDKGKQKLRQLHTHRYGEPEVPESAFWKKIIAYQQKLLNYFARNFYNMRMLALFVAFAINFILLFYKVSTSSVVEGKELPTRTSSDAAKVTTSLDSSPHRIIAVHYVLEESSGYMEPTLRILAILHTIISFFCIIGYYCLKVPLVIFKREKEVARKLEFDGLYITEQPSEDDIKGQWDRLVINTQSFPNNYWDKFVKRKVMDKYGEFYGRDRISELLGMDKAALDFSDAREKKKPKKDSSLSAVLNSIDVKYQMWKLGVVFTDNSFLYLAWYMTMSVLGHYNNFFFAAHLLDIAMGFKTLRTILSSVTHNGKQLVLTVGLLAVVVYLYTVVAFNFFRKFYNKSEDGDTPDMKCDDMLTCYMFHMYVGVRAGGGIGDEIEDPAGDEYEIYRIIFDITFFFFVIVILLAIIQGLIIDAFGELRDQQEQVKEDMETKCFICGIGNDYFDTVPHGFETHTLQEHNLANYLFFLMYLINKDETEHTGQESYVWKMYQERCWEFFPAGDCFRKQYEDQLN

B1: C-terminal half of GSTM2 (GSTM2C) (domain or fragment)
chain: PMTLGYWNIRGLAHSIRLLLEYTDSSYEEKKYTMGDAPDYDRSQWLNEKFKLGLDFPNLPYLIDGTHKITQSNAILRYIARKHNLCGESEKEQIREDILENQFMDSRMQLAKLCYDPDFEKLKPEYLQALPEMLKLYSQFLGKQPWFLGDKITFVDFIAYDVLERNQVFEPSCLDAFPNLKDFISRFEGLEKISAYMKSSRFLPRPVFTKMAVWGNK
Q: B1 was tested. Which field-stimulated myocyte shortening after 2 h with 5, 10 and 15 uM GSTM2C, as percent of control (3.0%, 10.9% and 42.8%); significant only at 15 uM did it give?
A: 42.8 % of control
